Source: patent publication US20240174727A1, “LONG-ACTING NATRIURETIC PEPTIDES AND USES THEREOF” (Eli Lilly and Company, priority 2022, published 2024)
Numbered stars: 1 amine (or outer) side, 2 acyl side, 3 side chain; on linkers, the order of the positions; unused ones are H or OH. Bridge positions count the residues as written; N and C are the ends. Square brackets hold non-standard residues; d marks the D form. * marks the point of attachment. thioacetal = thioacetal linkage between two cysteines (intrachain bond at the bracketed Cys); C20 diacid = O=C(O)CCCCCCCCCCCCCCCCCCC(=O)*; γGlu = O=C(O)[C@H](CCC(=O)[*:2])N[*:1]; Dap = NC[C@H](N)C(=O)O

T1: human NPRA (human, UniProt P16066 33-1061)
T1 sequence (looked up): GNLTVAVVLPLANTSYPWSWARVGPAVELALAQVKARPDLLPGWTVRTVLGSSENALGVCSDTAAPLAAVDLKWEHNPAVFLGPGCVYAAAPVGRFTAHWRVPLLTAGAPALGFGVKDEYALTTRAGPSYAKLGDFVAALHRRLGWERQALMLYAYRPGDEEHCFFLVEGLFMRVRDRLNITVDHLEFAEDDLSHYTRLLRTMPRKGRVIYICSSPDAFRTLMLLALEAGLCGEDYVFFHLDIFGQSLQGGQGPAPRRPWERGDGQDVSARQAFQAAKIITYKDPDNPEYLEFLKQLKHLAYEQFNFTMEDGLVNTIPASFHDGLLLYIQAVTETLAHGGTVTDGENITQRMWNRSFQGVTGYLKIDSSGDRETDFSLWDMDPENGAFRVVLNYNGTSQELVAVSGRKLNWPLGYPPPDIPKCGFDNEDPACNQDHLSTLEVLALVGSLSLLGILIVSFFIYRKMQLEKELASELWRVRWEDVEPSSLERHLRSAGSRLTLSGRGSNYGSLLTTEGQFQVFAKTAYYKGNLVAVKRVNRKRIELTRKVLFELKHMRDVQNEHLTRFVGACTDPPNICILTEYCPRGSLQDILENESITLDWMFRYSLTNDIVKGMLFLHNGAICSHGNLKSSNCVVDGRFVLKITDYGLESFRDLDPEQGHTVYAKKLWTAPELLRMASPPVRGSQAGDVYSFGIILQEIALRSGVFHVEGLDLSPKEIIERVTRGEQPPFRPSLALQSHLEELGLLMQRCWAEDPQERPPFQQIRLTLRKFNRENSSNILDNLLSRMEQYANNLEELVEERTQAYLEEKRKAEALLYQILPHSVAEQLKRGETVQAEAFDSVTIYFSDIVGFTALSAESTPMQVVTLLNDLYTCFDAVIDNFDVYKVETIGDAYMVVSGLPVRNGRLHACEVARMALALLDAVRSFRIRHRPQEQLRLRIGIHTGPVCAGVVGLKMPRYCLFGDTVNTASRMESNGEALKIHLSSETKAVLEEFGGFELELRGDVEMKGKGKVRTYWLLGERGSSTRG

T2: rat NPRA (rat, UniProt P18910 29-1057)
T2 sequence (looked up): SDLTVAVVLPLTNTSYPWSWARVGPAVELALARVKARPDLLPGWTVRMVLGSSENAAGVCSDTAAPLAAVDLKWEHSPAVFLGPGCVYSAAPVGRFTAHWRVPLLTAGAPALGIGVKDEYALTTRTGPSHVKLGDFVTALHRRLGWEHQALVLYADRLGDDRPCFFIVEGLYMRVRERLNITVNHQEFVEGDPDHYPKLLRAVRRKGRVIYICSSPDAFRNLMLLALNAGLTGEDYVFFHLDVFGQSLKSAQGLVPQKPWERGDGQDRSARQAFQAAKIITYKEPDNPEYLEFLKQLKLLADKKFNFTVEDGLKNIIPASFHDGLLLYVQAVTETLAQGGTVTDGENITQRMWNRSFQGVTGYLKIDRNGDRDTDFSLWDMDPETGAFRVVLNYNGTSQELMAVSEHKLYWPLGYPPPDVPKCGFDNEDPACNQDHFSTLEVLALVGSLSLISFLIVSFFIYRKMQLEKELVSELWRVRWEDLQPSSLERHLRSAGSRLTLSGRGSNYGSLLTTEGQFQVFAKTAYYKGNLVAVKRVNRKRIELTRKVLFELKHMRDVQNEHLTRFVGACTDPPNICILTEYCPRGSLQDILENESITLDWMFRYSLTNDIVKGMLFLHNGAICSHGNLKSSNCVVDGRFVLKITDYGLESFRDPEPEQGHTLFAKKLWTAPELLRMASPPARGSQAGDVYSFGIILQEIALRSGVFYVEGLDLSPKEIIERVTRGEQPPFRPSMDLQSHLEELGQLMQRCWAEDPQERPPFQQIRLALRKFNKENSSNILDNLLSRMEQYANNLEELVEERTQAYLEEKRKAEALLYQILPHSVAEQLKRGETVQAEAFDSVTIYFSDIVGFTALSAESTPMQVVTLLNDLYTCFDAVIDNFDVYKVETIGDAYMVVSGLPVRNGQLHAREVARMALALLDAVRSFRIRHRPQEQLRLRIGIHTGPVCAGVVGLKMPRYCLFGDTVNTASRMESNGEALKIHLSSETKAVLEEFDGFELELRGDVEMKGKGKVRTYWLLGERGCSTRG


Experiments:
human NPRA = biological target: T1, human NPRA; assay: cell-based or functional assay
rat NPRA = biological target: T2, rat NPRA; assay: cell-based or functional assay

| Binder | cGMP Assay (EC50, pM) w/BSA, hNPRA (human NPRA) | cGMP Assay (EC50, pM) w/Casein, hNPRA (human NPRA) | cGMP Assay (EC50, pM) w/BSA, rNPRA (rat NPRA) | cGMP Assay (EC50, pM) w/Casein, rNPRA (rat NPRA) |
| --- | --- | --- | --- | --- |
| {C20 diacid-γGlu}-EKEKEKGEKPRSSCFGG[Dap]IDRIGHQSGLGCPSFRHGSPSSGAPPPS-NH2 (bridge 14-30 via thioacetal) [HOOC-(CH2)18-CO-(γGlu)-EKEKEKGEKPRSS[CFGG-Dap-IDRIGHQSGLGC]PSFRHGSPSSGAPPPS-NH2] | 2.87e+06 pM | 19700 pM | 1.73e+06 pM | 200000 pM |
| {C20 diacid-γGlu}-EKEKEKGEKPRSSCFGKRIDRIGRYSGLGCPSFRHGSPSSGAPPPS-NH2 (bridge 14-30 via thioacetal) [HOOC-(CH2)18-CO-(γGlu)-EKEKEKGEKPRSS[CFGKRIDRIGRYSGLGC]PSFRHGSPSSGAPPPS-NH2] | 11700 pM | 692 pM | 4.18e+06 pM | 41100 pM |
